{
  "source": "paper PMC9482650",
  "about": "“Quantitative fragmentomics allow affinity mapping of interactomes” (Nature Communications, 2022)",
  "data": [
    {"target": "T1, FRMPD1, Q5SYB0", "T1 sequence (Q5SYB0 52-145, limits assumed, looked up)": "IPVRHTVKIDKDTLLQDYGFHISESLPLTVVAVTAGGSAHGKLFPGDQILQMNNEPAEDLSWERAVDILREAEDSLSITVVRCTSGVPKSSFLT", "experiment": "holdup assay", "set-up": "key: below the threshold = too weak to quantify, mostly under pKd 3.1 to 4", "conditions": "plain residues with an end cap or a label only (N-terminal biotin on a linker: ado-ado)", "values": [
      {"binder": "QLSFNTDTLC", "note": "[ABCA2, Q9BZC7]", "pKd": "below the threshold"}
    ]},
    {"target": "SCRIB_1, Q14160", "sequence (Q14160 718-814)": "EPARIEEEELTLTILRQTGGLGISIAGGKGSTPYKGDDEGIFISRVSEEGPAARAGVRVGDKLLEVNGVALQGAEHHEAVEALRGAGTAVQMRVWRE", "experiment": "holdup assay", "set-up": "key: below the threshold = too weak to quantify, mostly under pKd 3.1 to 4", "conditions": "plain residues with an end cap or a label only (N-terminal biotin on a linker: ado-ado)", "values": [
      {"binder": "QLSFNTDTLC", "note": "[ABCA2, Q9BZC7]", "pKd": "below the threshold"}
    ]},
    {"target": "MAST2, Q6P0Q8", "sequence (Q6P0Q8 1099-1202)": "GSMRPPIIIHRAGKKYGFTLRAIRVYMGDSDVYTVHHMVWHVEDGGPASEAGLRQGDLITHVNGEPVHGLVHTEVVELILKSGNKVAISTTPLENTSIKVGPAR", "experiment": "holdup assay", "set-up": "key: below the threshold = too weak to quantify, mostly under pKd 3.1 to 4", "conditions": "plain residues with an end cap or a label only (N-terminal biotin on a linker: ado-ado)", "values": [
      {"binder": "QLSFNTDTLC", "note": "[ABCA2, Q9BZC7]", "pKd": 4.79}
    ]},
    {"target": "GIPC2, Q8TF65", "sequence (Q8TF65 112-203)": "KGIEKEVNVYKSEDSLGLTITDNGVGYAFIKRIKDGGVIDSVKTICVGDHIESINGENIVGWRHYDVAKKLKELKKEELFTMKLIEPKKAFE", "experiment": "holdup assay", "set-up": "key: below the threshold = too weak to quantify, mostly under pKd 3.1 to 4", "conditions": "plain residues with an end cap or a label only (N-terminal biotin on a linker: ado-ado)", "values": [
      {"binder": "QLSFNTDTLC", "note": "[ABCA2, Q9BZC7]", "pKd": "below the threshold"}
    ]},
    {"target": "MAGI2_5, Q86UL8", "sequence (Q86UL8 915-1017)": "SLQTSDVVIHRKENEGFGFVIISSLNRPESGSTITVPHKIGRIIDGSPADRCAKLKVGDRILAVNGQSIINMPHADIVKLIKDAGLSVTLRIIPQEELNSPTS", "experiment": "holdup assay", "set-up": "key: below the threshold = too weak to quantify, mostly under pKd 3.1 to 4", "conditions": "plain residues with an end cap or a label only (N-terminal biotin on a linker: ado-ado)", "values": [
      {"binder": "QLSFNTDTLC", "note": "[ABCA2, Q9BZC7]", "pKd": 3.73}
    ]},
    {"target": "T2, RADIL, Q96JH8", "T2 sequence (Q96JH8 971-1071, limits assumed, looked up)": "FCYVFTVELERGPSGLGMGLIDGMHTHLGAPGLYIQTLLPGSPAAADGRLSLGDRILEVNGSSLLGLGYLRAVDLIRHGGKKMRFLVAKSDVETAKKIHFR", "experiment": "holdup assay", "set-up": "key: below the threshold = too weak to quantify, mostly under pKd 3.1 to 4", "conditions": "plain residues with an end cap or a label only (N-terminal biotin on a linker: ado-ado)", "values": [
      {"binder": "QLSFNTDTLC", "note": "[ABCA2, Q9BZC7]", "pKd": 3.49}
    ]},
    {"target": "T3, LIN7A, O14910", "T3 sequence (O14910 103-200, limits assumed, looked up)": "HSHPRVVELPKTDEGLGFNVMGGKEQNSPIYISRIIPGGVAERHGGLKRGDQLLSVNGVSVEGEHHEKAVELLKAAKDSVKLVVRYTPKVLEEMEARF", "experiment": "holdup assay", "set-up": "key: below the threshold = too weak to quantify, mostly under pKd 3.1 to 4", "conditions": "plain residues with an end cap or a label only (N-terminal biotin on a linker: ado-ado)", "values": [
      {"binder": "QLSFNTDTLC", "note": "[ABCA2, Q9BZC7]", "pKd": "below the threshold"}
    ]},
    {"target": "MAGI2_6, Q86UL8", "sequence (Q86UL8 1141-1229)": "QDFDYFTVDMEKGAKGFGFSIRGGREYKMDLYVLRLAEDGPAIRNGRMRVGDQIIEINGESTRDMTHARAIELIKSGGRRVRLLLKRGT", "experiment": "holdup assay", "set-up": "key: below the threshold = too weak to quantify, mostly under pKd 3.1 to 4", "conditions": "plain residues with an end cap or a label only (N-terminal biotin on a linker: ado-ado)", "values": [
      {"binder": "QLSFNTDTLC", "note": "[ABCA2, Q9BZC7]", "pKd": "below the threshold"}
    ]},
    {"target": "GRIP2_6, Q9C0E4", "sequence (Q9C0E4 648-740)": "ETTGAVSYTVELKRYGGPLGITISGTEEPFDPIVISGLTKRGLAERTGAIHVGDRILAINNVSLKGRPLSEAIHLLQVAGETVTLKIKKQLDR", "experiment": "holdup assay", "set-up": "key: below the threshold = too weak to quantify, mostly under pKd 3.1 to 4", "conditions": "plain residues with an end cap or a label only (N-terminal biotin on a linker: ado-ado)", "values": [
      {"binder": "QLSFNTDTLC", "note": "[ABCA2, Q9BZC7]", "pKd": "below the threshold"}
    ]},
    {"target": "T4, LNX2_3, Q8N448", "T4 sequence (Q8N448 463-564, limits assumed, looked up)": "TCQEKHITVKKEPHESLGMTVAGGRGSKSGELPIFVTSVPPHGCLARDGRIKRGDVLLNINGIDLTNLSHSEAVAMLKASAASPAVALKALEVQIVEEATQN", "experiment": "holdup assay", "set-up": "key: below the threshold = too weak to quantify, mostly under pKd 3.1 to 4", "conditions": "plain residues with an end cap or a label only (N-terminal biotin on a linker: ado-ado)", "values": [
      {"binder": "QLSFNTDTLC", "note": "[ABCA2, Q9BZC7]", "pKd": "below the threshold"}
    ]},
    {"target": "FRMPD3, Q5JV73", "sequence (Q5JV73 12-100)": "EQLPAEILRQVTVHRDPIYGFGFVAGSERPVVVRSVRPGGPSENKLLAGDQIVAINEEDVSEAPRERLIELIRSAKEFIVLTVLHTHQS", "experiment": "holdup assay", "set-up": "key: below the threshold = too weak to quantify, mostly under pKd 3.1 to 4", "conditions": "plain residues with an end cap or a label only (N-terminal biotin on a linker: ado-ado)", "values": [
      {"binder": "QLSFNTDTLC", "note": "[ABCA2, Q9BZC7]", "pKd": "below the threshold"}
    ]},
    {"target": "T5, CARD11, Q9BXL7", "T5 sequence (Q9BXL7 662-765, limits assumed, looked up)": "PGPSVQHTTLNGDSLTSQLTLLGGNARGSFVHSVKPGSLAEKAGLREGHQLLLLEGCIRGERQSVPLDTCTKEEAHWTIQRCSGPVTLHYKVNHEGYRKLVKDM", "experiment": "holdup assay", "set-up": "key: below the threshold = too weak to quantify, mostly under pKd 3.1 to 4", "conditions": "plain residues with an end cap or a label only (N-terminal biotin on a linker: ado-ado)", "values": [
      {"binder": "QLSFNTDTLC", "note": "[ABCA2, Q9BZC7]", "pKd": "below the threshold"}
    ]},
    {"target": "T6, PARD3B_1, Q8TEW8", "T6 sequence (Q8TEW8 196-299, limits assumed, looked up)": "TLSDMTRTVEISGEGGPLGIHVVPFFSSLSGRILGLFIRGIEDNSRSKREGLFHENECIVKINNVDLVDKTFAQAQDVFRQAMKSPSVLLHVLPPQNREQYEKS", "experiment": "holdup assay", "set-up": "key: below the threshold = too weak to quantify, mostly under pKd 3.1 to 4", "conditions": "plain residues with an end cap or a label only (N-terminal biotin on a linker: ado-ado)", "values": [
      {"binder": "QLSFNTDTLC", "note": "[ABCA2, Q9BZC7]", "pKd": 3.67}
    ]},
    {"target": "PTPN3, P26045", "sequence (P26045 505-587)": "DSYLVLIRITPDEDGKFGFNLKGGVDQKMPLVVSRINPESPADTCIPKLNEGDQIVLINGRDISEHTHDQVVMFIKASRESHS", "experiment": "holdup assay", "set-up": "key: below the threshold = too weak to quantify, mostly under pKd 3.1 to 4", "conditions": "plain residues with an end cap or a label only (N-terminal biotin on a linker: ado-ado)", "values": [
      {"binder": "QLSFNTDTLC", "note": "[ABCA2, Q9BZC7]", "pKd": 4.09}
    ]},
    {"target": "DLG2_2, Q15700", "sequence (Q15700 189-283)": "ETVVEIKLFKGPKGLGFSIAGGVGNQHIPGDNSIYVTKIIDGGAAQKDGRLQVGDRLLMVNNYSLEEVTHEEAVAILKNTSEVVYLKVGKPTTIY", "experiment": "holdup assay", "set-up": "key: below the threshold = too weak to quantify, mostly under pKd 3.1 to 4", "conditions": "plain residues with an end cap or a label only (N-terminal biotin on a linker: ado-ado)", "values": [
      {"binder": "QLSFNTDTLC", "note": "[ABCA2, Q9BZC7]", "pKd": "below the threshold"}
    ]},
    {"target": "T7, ARHGAP21, Q5T5U3", "T7 sequence (Q5T5U3 45-169, limits assumed, looked up)": "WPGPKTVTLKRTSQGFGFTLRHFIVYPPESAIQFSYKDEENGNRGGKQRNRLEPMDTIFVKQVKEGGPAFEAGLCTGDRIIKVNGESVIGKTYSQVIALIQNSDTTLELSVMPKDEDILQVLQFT", "experiment": "holdup assay", "set-up": "key: below the threshold = too weak to quantify, mostly under pKd 3.1 to 4", "conditions": "plain residues with an end cap or a label only (N-terminal biotin on a linker: ado-ado)", "values": [
      {"binder": "QLSFNTDTLC", "note": "[ABCA2, Q9BZC7]", "pKd": "below the threshold"}
    ]},
    {"target": "LIMK2, P53671", "sequence (P53671 143-248)": "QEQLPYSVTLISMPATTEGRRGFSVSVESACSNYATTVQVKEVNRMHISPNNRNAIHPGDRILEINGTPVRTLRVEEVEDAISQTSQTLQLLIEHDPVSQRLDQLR", "experiment": "holdup assay", "set-up": "key: below the threshold = too weak to quantify, mostly under pKd 3.1 to 4", "conditions": "plain residues with an end cap or a label only (N-terminal biotin on a linker: ado-ado)", "values": [
      {"binder": "QLSFNTDTLC", "note": "[ABCA2, Q9BZC7]", "pKd": "below the threshold"}
    ]},
    {"target": "LDB3, O75112", "sequence (O75112 1-94)": "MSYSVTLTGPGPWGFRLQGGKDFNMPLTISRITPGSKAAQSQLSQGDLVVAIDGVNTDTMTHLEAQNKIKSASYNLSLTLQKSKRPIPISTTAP", "experiment": "holdup assay", "set-up": "key: below the threshold = too weak to quantify, mostly under pKd 3.1 to 4", "conditions": "plain residues with an end cap or a label only (N-terminal biotin on a linker: ado-ado)", "values": [
      {"binder": "QLSFNTDTLC", "note": "[ABCA2, Q9BZC7]", "pKd": "below the threshold"}
    ]},
    {"target": "Inadl_10, Q8NI35", "sequence (Q8NI35 1673-1763)": "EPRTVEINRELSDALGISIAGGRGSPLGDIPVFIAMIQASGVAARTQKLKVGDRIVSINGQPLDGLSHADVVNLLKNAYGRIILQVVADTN", "experiment": "holdup assay", "set-up": "key: below the threshold = too weak to quantify, mostly under pKd 3.1 to 4", "conditions": "plain residues with an end cap or a label only (N-terminal biotin on a linker: ado-ado)", "values": [
      {"binder": "QLSFNTDTLC", "note": "[ABCA2, Q9BZC7]", "pKd": "below the threshold"}
    ]},
    {"target": "SNX27, Q96L92", "experiment": "holdup assay", "set-up": "key: below the threshold = too weak to quantify, mostly under pKd 3.1 to 4", "conditions": "plain residues with an end cap or a label only (N-terminal biotin on a linker: ado-ado)", "values": [
      {"binder": "QLSFNTDTLC", "note": "[ABCA2, Q9BZC7]", "pKd": 4.17}
    ]},
    {"target": "ARHGEF12, Q9NZN5-2", "sequence (Q9NZN5 other isoform, or with tags, fused parts or gaps)": "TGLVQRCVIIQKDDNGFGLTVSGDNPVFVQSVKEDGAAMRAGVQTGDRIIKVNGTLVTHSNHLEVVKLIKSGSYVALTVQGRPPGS", "experiment": "holdup assay", "set-up": "key: below the threshold = too weak to quantify, mostly under pKd 3.1 to 4", "conditions": "plain residues with an end cap or a label only (N-terminal biotin on a linker: ado-ado)", "values": [
      {"binder": "QLSFNTDTLC", "note": "[ABCA2, Q9BZC7]", "pKd": "below the threshold"}
    ]},
    {"target": "DLG4_1, P78352", "sequence (P78352 62-152)": "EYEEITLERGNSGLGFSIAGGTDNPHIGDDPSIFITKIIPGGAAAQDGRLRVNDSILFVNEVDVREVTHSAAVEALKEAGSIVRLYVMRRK", "experiment": "holdup assay", "set-up": "key: below the threshold = too weak to quantify, mostly under pKd 3.1 to 4", "conditions": "plain residues with an end cap or a label only (N-terminal biotin on a linker: ado-ado)", "values": [
      {"binder": "QLSFNTDTLC", "note": "[ABCA2, Q9BZC7]", "pKd": 3.7}
    ]},
    {"target": "MAGI1_1, Q96QZ7", "sequence (Q96QZ7 1-106)": "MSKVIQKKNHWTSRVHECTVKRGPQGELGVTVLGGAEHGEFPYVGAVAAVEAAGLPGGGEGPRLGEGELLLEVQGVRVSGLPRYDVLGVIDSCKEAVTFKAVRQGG", "experiment": "holdup assay", "set-up": "key: below the threshold = too weak to quantify, mostly under pKd 3.1 to 4", "conditions": "plain residues with an end cap or a label only (N-terminal biotin on a linker: ado-ado)", "values": [
      {"binder": "QLSFNTDTLC", "note": "[ABCA2, Q9BZC7]", "pKd": "below the threshold"}
    ]},
    {"target": "Inadl_8, Q8NI35", "sequence (Q8NI35 1425-1530)": "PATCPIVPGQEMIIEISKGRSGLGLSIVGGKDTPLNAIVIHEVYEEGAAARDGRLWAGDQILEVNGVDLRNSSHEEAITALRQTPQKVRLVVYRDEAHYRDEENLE", "experiment": "holdup assay", "set-up": "key: below the threshold = too weak to quantify, mostly under pKd 3.1 to 4", "conditions": "plain residues with an end cap or a label only (N-terminal biotin on a linker: ado-ado)", "values": [
      {"binder": "QLSFNTDTLC", "note": "[ABCA2, Q9BZC7]", "pKd": "below the threshold"}
    ]},
    {"target": "T8, PDZRN3_1, Q9UPQ7", "T8 sequence (Q9UPQ7 244-349, limits assumed, looked up)": "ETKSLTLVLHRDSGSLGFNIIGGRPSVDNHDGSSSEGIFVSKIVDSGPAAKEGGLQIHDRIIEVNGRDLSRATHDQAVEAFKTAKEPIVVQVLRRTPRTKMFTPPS", "experiment": "holdup assay", "set-up": "key: below the threshold = too weak to quantify, mostly under pKd 3.1 to 4", "conditions": "plain residues with an end cap or a label only (N-terminal biotin on a linker: ado-ado)", "values": [
      {"binder": "QLSFNTDTLC", "note": "[ABCA2, Q9BZC7]", "pKd": "below the threshold"}
    ]},
    {"target": "Inadl_3, Q8NI35", "sequence (Q8NI35 359-469)": "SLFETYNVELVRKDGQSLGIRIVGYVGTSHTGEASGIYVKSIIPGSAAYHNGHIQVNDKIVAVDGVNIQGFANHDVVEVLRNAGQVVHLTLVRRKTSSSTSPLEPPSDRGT", "experiment": "holdup assay", "set-up": "key: below the threshold = too weak to quantify, mostly under pKd 3.1 to 4", "conditions": "plain residues with an end cap or a label only (N-terminal biotin on a linker: ado-ado)", "values": [
      {"binder": "QLSFNTDTLC", "note": "[ABCA2, Q9BZC7]", "pKd": "below the threshold"}
    ]},
    {"target": "GRASP, Q7Z6J2", "sequence (Q7Z6J2 96-193)": "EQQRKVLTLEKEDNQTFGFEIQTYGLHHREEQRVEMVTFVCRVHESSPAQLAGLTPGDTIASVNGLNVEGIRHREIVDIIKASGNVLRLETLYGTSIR", "experiment": "holdup assay", "set-up": "key: below the threshold = too weak to quantify, mostly under pKd 3.1 to 4", "conditions": "plain residues with an end cap or a label only (N-terminal biotin on a linker: ado-ado)", "values": [
      {"binder": "QLSFNTDTLC", "note": "[ABCA2, Q9BZC7]", "pKd": "below the threshold"}
    ]},
    {"target": "NHERF4_1, Q86UT5-2", "sequence (Q86UT5 other isoform, or with tags, fused parts or gaps)": "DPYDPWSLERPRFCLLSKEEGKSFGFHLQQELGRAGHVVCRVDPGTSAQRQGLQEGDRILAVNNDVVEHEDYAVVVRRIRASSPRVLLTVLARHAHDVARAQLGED", "experiment": "holdup assay", "set-up": "key: below the threshold = too weak to quantify, mostly under pKd 3.1 to 4", "conditions": "plain residues with an end cap or a label only (N-terminal biotin on a linker: ado-ado)", "values": [
      {"binder": "QLSFNTDTLC", "note": "[ABCA2, Q9BZC7]", "pKd": 4.18}
    ]},
    {"target": "T9, MPP2, Q14168", "T9 sequence (Q14168 180-250, limits assumed, looked up)": "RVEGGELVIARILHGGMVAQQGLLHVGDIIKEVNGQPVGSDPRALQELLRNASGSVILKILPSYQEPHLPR", "experiment": "holdup assay", "set-up": "key: below the threshold = too weak to quantify, mostly under pKd 3.1 to 4", "conditions": "plain residues with an end cap or a label only (N-terminal biotin on a linker: ado-ado)", "values": [
      {"binder": "QLSFNTDTLC", "note": "[ABCA2, Q9BZC7]", "pKd": "below the threshold"}
    ]}
  ]
}
